Assay [1] has as its target T1, recombinant soluble human CD93 extracellular domain fused to a 6xHis tag (human, UniProt Q9NPY3 24-580).
T1 construct: extracellular domain; also called recombinant CD93; soluble CD93 protein
T1 sequence: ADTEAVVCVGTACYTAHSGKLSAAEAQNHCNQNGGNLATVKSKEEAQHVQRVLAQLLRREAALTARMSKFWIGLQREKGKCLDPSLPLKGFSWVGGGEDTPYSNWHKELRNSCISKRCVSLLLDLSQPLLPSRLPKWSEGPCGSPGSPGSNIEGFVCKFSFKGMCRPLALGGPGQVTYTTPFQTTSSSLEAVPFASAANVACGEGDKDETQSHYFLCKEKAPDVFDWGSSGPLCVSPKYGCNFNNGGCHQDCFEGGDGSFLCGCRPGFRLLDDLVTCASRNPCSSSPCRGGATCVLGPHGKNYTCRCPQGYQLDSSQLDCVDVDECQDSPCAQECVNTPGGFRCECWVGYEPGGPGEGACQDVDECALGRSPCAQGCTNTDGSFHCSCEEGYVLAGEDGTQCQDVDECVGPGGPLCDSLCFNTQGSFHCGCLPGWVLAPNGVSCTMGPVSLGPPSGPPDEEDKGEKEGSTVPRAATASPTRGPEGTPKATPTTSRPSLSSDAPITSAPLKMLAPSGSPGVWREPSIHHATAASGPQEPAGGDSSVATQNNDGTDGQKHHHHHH
Nature of the assay: SPR (BIAcore), 4E1 immobilized on chip, recombinant CD93 injected, 1:1 fit. As to the method: The binding analysis was performed using a BIAcore 3000 equipped with a CM5 sensor chip. Briefly, 4E1 antibody was immobilized via amine groups on a CM5 sensor chip following standard procedures (flow rate 5 μl/min). For the immobilization, 4E1 diluted in 10 mM Na acetate pH 4.0 at the concentration of 10 μg/ml was injected for 360 sec over the dextran matrix on flow cell, which had been previously activated with a mixture of EDC-NHS for 420 sec. After injection of the antibody, a pulse of Ethanolamine 1M was performed to neutralize activated groups. A reference flow cell to be used as blank, was simultaneously subjected to identical procedures, but the injection of Antibody, which was substituted with injection of dilution buffer alone (HBS-EP+). Recombinant purified CD93 protein was diluted in HBS-EP+ at different concentration (1 μg/ml, 2.5 μg/ml, […] and 20 μg/ml) and injected for 180 s at a flow rate of 60 μl/min on flow cell 4 and on reference flow cell 3. […] Sensorgrams illustrated in the figure are obtained by subtraction from sensorgrams on Fc4 of those obtained on Fc3. Kinetic rates were calculated applying a 1:1 binding as fitting model using the Bia T200 evaluation software 2.0.1
Background: Surface plasmon resonance follows binding to a sensor surface in real time, without labels.

For assay [2], the target named is T2, human full-length CD93 (human, UniProt Q9NPY3 22-652).
T2 construct: whole, on cells; Used in two settings; also called human CD93 protein
T2 sequence (looked up): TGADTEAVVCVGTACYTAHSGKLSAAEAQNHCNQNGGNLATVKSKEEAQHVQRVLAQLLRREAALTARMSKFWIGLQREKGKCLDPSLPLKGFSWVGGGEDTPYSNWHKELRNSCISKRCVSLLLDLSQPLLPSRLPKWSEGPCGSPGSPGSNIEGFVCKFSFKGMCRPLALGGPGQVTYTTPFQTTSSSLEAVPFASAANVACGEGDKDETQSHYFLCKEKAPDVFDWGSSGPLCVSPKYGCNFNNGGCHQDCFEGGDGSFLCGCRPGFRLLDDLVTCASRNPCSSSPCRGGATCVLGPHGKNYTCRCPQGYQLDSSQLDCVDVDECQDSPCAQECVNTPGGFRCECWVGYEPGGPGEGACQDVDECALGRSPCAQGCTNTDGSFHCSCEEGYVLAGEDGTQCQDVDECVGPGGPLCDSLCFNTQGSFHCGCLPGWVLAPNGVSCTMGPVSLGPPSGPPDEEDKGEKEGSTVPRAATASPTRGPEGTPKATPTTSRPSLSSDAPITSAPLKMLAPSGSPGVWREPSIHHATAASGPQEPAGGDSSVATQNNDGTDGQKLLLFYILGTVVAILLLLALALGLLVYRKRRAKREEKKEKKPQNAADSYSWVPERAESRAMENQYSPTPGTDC
Nature of the assay: immunofluorescence on fixed, permeabilized late spreading HUVECs. On the procedure: Zip Alexa Fluor Rapid Antibody Labeling kit (Thermo Fisher Scientific) was used to efficiently and quickly label the mAb 4E1 with Alexa Fluor 488 following the manufacturer's instructions. Briefly, 10 μl of 1 M sodium bicarbonate solution were added to 100 μl of 4E1 solution (1 mg/ml). Next, the antibody solution was incubated for 15 min at room temperature with the fluorochrome solution (Component B) and used in immunofluorescence experiments.
Cells were seeded onto gelatin-coated glass coverslips and fixed in 3% paraformaldehyde for 15 min at room temperature during the late spreading phase. Samples were permeabilized with 0.1% Triton X-100 in PBS, and blocked with 0.3% w/v BSA in PBS, each for 15 min at room temperature. Next, cells were washed with PBS and incubated 1 h at room temperature with Alexa Fluor 488-labeled 4E1 and rabbit anti-MMRN2 antibodies. Then, samples were washed three times with PBS/0.1% Tween-20 and incubated with secondary Alexa Fluor 568-labeled anti-rabbit antibodies (Thermo Fisher Scientific), diluted at 25 μg/mL in PBS/0.1% Tween-20. After washing, coverslips were mounted with Mowiol mounting medium. Fluorescent images were captured using a Leica TCS SP2 AOBS confocal laser-scanning microscope and overlaid images were produced. A Leica HCX PL APO Ibd.BL 63×/1.40 oil objective was used. […]

The target of assay [3] is T1, recombinant soluble human CD93 …. Kind of assay: SPR (BIAcore), rec4E1 immobilized on chip, recombinant CD93 injected, 1:1 fit. On the procedure:
The binding analysis was performed using a BIAcore 3000 equipped with a CM5 sensor chip. Briefly, rec4E1 or 4E1 antibodies were immobilized via amine groups on a CM5 sensor chip following standard procedures. For the immobilization, the antibody diluted in 10 mM Na acetate pH 4.0 at the concentration of 10 μg/ml was injected for 360 sec over the dextran matrix on flow cell, which had been previously activated with a mixture of EDC-NHS for 420 sec. After injection of the antibody, a pulse of Ethanolamine 1 M was used to neutralize activated groups. A reference flow cell to be used as blank was simultaneously subjected to identical procedures, but the antibody was substituted with dilution buffer (HBS-EP+). Recombinant purified CD93 protein was diluted in HBS-EP+ at different concentration (10, 25, 50, 100, 250, and 500 ng/mL) and injected for 180 s at a flow rate of 60 μl/min on all flow cells. […] Kinetic rates were calculated applying a 1:1 binding as fitting model using the Bia T200 evaluation software 2.0.1.

We go through three molecules from patent US20240368300A1 (UCME BIOSCIENCE S R L, published 2024).

B1: anti-CD93 monoclonal antibody 4E1 (from hybridoma) (antibody, IgG1, V domains shown)
VH: QEQLQQPGTELVKPGASVRLSCKTSGYTFASYTLHWVKQTPGQGLDWIGAIYPGNGDTSYNQKFKDKATLTADKSSSTAYMQLSNLTSEDSAVYYCARLDWYFDLWGAGTTVTVS
VL: DIVLTQSPTSLAVSLGQRATISCKASQSVDYDGDSYMNWYQQKPGQPPRLLIYAASNLESGIPARFSGSGSGTDFTLNIHPVEEEDAATYYCQQNNEDPRTFGGGTKLEIK
notes: Mouse hybridoma antibody, full length, isotype IgG1 with k light chain; also called mAb 4E1; anti-CD93 4E1 mAb
As to B1, the Kd in assay [1] amounted to 0.45 nM.

B2: Alexa Fluor 488-labeled 4E1 (antibody, V domains shown)
VH: B1 VH
VL: B1 VL
modifications: Alexa Fluor 488 dye conjugated to the antibody (site and chain not stated)
notes: mAb 4E1 (mouse IgG1 k) labelled with the Zip Alexa Fluor Rapid Antibody Labeling kit; also called conjugated 4E1
In the case of B2, the binding result in assay [2] is “binds”.

B3: recombinant anti-CD93 monoclonal antibody rec4E1 (antibody, V domains shown)
VH: B1 VH
VL: B1 VL
notes: Whole recombinant IgG1 expressed in CHO cells from the pTRIOZ vector; The light chain constant region is not described; also called recombinant 4E1
Take B3: in assay [3], the Kd came out at 5.09 pM.

What is called Kd is the free concentration of one partner at which half of the binding sites on the other are occupied at equilibrium, for simple one-to-one binding.
